# Data taken from patent US10426815B2, “Prevention and treatment of itch with an MRGPR antagonist” (THE GENERAL HOSPITAL CORPORATION, priority 2015, dated 2019).
# Target: T1, MrgX4 (human MRGPRX4) (Homo sapiens, UniProt Q96LA9)
# T1 construct: expressed in transfected cells; host or cells: HeLa cells, pcDNA3.1(-)
# Experiment: Calcium imaging of cells transfected with the GPCR (Table 1)
# Format: cell-based
# Conditions: SP 10 μM (FIG. 9)
# Protocol: Human NK1 cDNA was obtained from LIFE Technologies, PCR cloned with Xho I-Hind III ends and cloned into pcDNA3.1(−). Mouse NK2 and NK3 expression-ready vectors were obtained from […] (Piscataway, N.J.). All other Mrgprs (human MRGPRX1, human MRGPRX2, human MRGPRX3, human MRGPRX4, mouse MrgprA2a, mouse MrgprA2b, mouse MrgprA3, mouse MrgprA4, mouse MrgprA9, mouse MrgprA10, mouse MrgprB4 and mouse MrgprB5) were cloned by PCR from genomic DNAs and inserted into pcDNA3.1 (−).
# 10 μg of expression vector (human MRGPRX2, mouse MrgprA1 or NK1) and 10 μl of LIPOFECTAMINE 2000 transfection reagent were diluted into 0.5 ml of DMEM and separately left at room temperature (RT) for 5 min. They were then mixed and incubated at RT for 20 minutes prior to being added to HeLa cells. HeLa cells were grown to confluence, trypsinized and 1×10^6 cells were pelleted in a 15 ml tube by centrifugation at 1000 rpm for 5 minutes. […]
# Calcium imaging was performed immediately after loading cells with Fura-2, using a ZEISS Axiovert 200M microscope platform equipped with a flipping filter wheel for ratiometric imaging. […] The software later analyzed all images taken during each excitation period. Ratiometric changes were measured in 10-20 cells in each individual experiment. An average of the fluorescence of the cells in each image was calculated and plotted against time in seconds. […]
# T1 sequence (Q96LA9 whole entry): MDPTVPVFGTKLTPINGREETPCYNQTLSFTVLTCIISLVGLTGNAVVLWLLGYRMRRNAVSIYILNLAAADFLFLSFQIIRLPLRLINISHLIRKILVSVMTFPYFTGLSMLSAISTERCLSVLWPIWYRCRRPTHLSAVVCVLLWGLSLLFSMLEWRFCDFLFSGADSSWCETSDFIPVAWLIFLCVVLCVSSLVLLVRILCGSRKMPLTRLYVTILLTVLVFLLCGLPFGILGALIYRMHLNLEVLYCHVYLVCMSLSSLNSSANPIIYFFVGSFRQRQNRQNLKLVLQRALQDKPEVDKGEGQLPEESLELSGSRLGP
substance,measurement,value
"SP: inflammatory undecapeptide neuropeptide of the tachykinin family, synthesized by GenScript",activation of hMRGPRX4 by the substance (in words),does not activate
